Reference: paper PMC2386976

Tested on: EIAV Rev (ERev), MBP-ERev fusion (Equine infectious anemia virus (EIAV))
Assay: filter binding
Details: Footprinting: 10 mM HEPES-KOH pH 7.5, 100 mM KCl, 1 mM MgCl2, 0.5 mM EDTA, complex formed 20 min on ice, probed 10 min at room temperature

“ERRE_RBR12 (ERRE, EIAV RRE-1, contains RBR-1 and RBR-2)” showed a Kd of 19 nM.
